Entries after “also recorded” stand apart in the source; their conditions may differ.
Tests used:
[1] = test system: angiogenesis induced by VEGF or bFGF in chicken allantoic membrane (CAM); test: Chicken allantoic membrane (CAM) angiogenesis assay; type: in vivo; conditions: 48 hours
Procedure: In order to test anti-angiogenic activity, chicken allantoic membrane (CAM) assays were performed with recombinant Saposin B. Ten day old fertilized chicken eggs were prepared for assay by creating a window in the egg shell, and placing filter paper discs saturated with VEGF or bFGF as positive controls, test compounds, or carrier buffer (negative controls) on the allantoic membrane. The membranes were harvested after 48 hours and analyzed using an Olympus stereomicroscope. The number of branching blood vessels that infiltrated under the discs were counted and photographed. Eight CAMs were studied for test group, and the experiments were repeated at least twice.

[2] = test system: Human bone marrow cells and peripheral blood mononuclear cells; test: Stem cell clonogenic assays in methylcellulose; type: cell-based; conditions: VEGF 10 and 100 ng/mL
Procedure: Human bone marrow cells and peripheral blood mononuclear cells were harvested from a subject after the administration of high doses of cyclophosphamide and G-CSF. Stem cell clonogenic assays in methylcellulose were performed with IL-3, erythropoietin, and VEGF (10 ng/mL, and 100 ng/mL). VEGF was used to determine if there are progenitor cells with self replication capacity but without adherence to extracellular matrix such as fibronectin. It was also desirable to determine if Saposin B was toxic to endothelial cell specific progenitors for hematopoietic (myeloid or erythroid) lineage cells.
These colonies contained mixture of cells indicating more than one cell lineage generated in response to VEGF. The colonies also contained spindle shaped cells which mark the presence of VEGF receptors.

[3] = test system: T-cell lymphoma (EL-4); test: Syngeneic tumor growth in C57BL/6 mice, T-cell lymphoma (EL-4); type: in vivo; conditions: 2.5 mg/kg from the day following implantation, two weeks
Procedure: (§1) FIG. 4: Inhibition of tumor growth in mice. C57BL/6 mice were implanted with Lewis lung carcinoma, melanoma (B 16), and T-cell lymphoma (EL4). KS Y-1 was implanted in nude mice as a positive control. One day after implantation 2.5 mg/kg of Saposin B was injected into the mice subcutaneously.
(§2) To determine whether this anti-tumor effect was reproducible with different classes of syngeneic-tumors, C57BL/6 mice were implanted with Lewis lung carcinoma, melanoma (B16), and T-cell lymphoma (EL-4) cell lines. KS Y-1 was implanted into nude mice for a positive control. The day following tumor implantation, 2.5 mg/kg of Saposin B was administered intraperitoneally. Tumor size was measured three times a week for two weeks at which time the mice were sacrificed for analysis. […] See, FIG. 4

[4] = test system: CD34+ cord blood derived cells; test: Viability of CD34+ cord blood derived cells; type: cell-based, human
Description: However in the presence of Saposin B, CD34^+/Flk-1^+ progenitor growth was inhibited.
Saposin B was found not to be toxic to most CD34^+ cord blood derived cells, since the difference in viability of Saposin B treated CD34^+ cells was only around 20% when compared to control cells. Thus Saposin B not only targets fully differentiated and activated endothelial cells, but also a circulating progenitor, previously shown to target angiogenic sites.

[5] = test system: Lewis lung carcinoma; test: Syngeneic tumor growth in C57BL/6 mice, Lewis lung carcinoma; type: in vivo; conditions: 2.5 mg/kg from the day following implantation, two weeks
Procedure: as §1, §2

[6] = test system: CD34+/Flk-1+ cells from cord blood; test: Growth of CD34+/Flk-1+ progenitors on fibronectin coated dishes; type: cell-based, human; conditions: 50 ng/mL
Description: A bone marrow derived human CD34+/Flk-1+ progenitor cell can be mobilized into the blood stream in response to tumor induced signals such as VEGF and cytokine production. These cells can target to sites of angiogenesis where they mature into activated endothelial cells and thus contribute to the generation of new blood vessels at the tumor site. By blocking the production of these cells or by targeting these cells (i.e., the CD34+/Flk-1+ progenitors and the activated endothelial cell they can become), the angiogenesis/vasculogenesis required for tumor growth can be reduced or halted. […] The adherent cells take on a spindle-shaped morphology characteristic of the activated vascular endothelial cells typical of the angiogenic process. These cells express endothelial-specific markers including factor VIII, ulex europaeus agglutinin-1 (UEA-1), endothelial constitutive nitric oxide synthase (ecNOS), and E selectin. Further, when these cells (peripheral blood Flk+ progenitors) are infused into mice, they incorporate into newly formed blood vessels at site of injury. These observation identify CD34+/Flk-1+ bone marrow derived progenitors as a putative precursor to vascular endothelial cells. Preventing these cells from colonizing at distal sites of angiogenesis in tumors has enormous implication for the treatment of tumors. […]

[7] = test system: KS cell lines; test: Growth inhibition of KS cell lines by recombinant proteins; type: cell-based; conditions: recombinant or naturally occurring protein
Procedure: (§3) Typically, in an anti-proliferation assay, the suppression of growth in the presence of the compound to be tested is measured. For example, the above cells are incubated with the polypeptides of this invention for a suitable time and the decrease in the growth rate relative to a negative control, i.e., cells of the same cell line which have been incubated in media alone, is measured. Growth of the cell culture can be measured by any method acceptable to one of skill, including but not limited to, 3H-thymidine uptake, cell counting and tetrazolium dye uptake.
(§4) By SDS-PAGE, the bacterial product was smaller than the eukaryotic protein. Because prokaryotically expressed proteins are not glycosylated, the difference in molecular weights probably represents the presence of carbohydrate in the eukaryotic protein. Recombinant proteins were then tested in KS, endothelial and control cell lines. Activity was found only in KS cell lines and endothelial cells.

[8] = test system: KS-SLK or KS Y-1 tumors; test: KS tumor growth in nude mice; type: in vivo
Procedure: FIG. 6: Effect of pentapeptide DVCQD (SEQ ID NO:28) on the growth of established KS Y-1 tumors in mice. Mice were implanted with the tumor on day one. Treatment with the peptide was started on the following day at a dose of 50 mg/kg subcutaneously daily. […] The arrow marks initiation of daily subcutaneous dosing.
In order to determine the anti-angiogenic activity of the recombinant Saposin B, tumor cells were implanted in immuno-deficient mice and treated with either Saposin B or buffer alone.
Nude mice were injected with 2×10^6 KS-SLK or KS Y-1 cells subcutaneously in a total volume of 100 μL. After one week of tumor development, the mice were injected subcutaneously daily with either PBS or Saposin B at concentrations of 1, 10 and 20 mg/kg for a total protein concentration of […]. The tumor size was measured three times a week. The results represent the median of 4 mice in each group.
as §2
In further experiments, KS tumors were allowed to grow for five days before treatment with Saposin B (1 and 5 mg/kg daily at a distal site from the timer tumor). In control mice, tumors grew to a weight of 555+mg. […] Tumors excised at the conclusion of the experiments were also examined for apoptosis, blood vessel density, and mitotic index. […] Thus, contrary to the results in vitro, Saposin B has an inhibitory effect against […] tumors.

[9] = test system: KS cell lines; test: KS cell migration in transwell plates; type: cell-based; conditions: chemotaxis induced by VEGF or bFGF
Procedure: The assays were done in double chamber wells separated by fibrinogen-coated membrane. Chemotaxis was induced by bFGF (25 ng/mL) in the lower chamber. Endothelial cells or KS cells (5×10^4/mL) were placed in the upper chamber in the presence and absence of test polypeptides. Taxol at 10 ng/mL was used as a known inhibitor of migration. Cell migration across the membrane was quantitated after an overnight incubation.
Angiogenesis is mediated by complex biochemical processes including degradation of the basement membrane under existing blood vessel endothelial cells, followed by proliferation and migration of endothelial cells, followed by formation of capillary loops, and recruitment of vascular smooth muscle cells to encase the newly formed vessels and provide stability. KS and endothelial cell migration in the presence of Saposin B was studied in transwell culture plates with 8 μm pore membranes (Costar, Cambridge, Mass.).
Briefly, wells were coated with fibronectin (25 μg/mL) overnight, and endothelial cells or KS cells were plated in the upper chamber with 100 μL of DMEM/0.4% FCS. 500 μL of DMEM/0.4% FCS was added to the lower chamber and incubated at 37° C. for one hour. The test polypeptides, at various concentrations, were added to the upper chamber, and chemotactic agents (VEGF or bFGF at 20 ng/mL) were added to the lower cell-culture chambers. The plates were incubated for 5 hr at 37° C. and the cells crossing the fibronectin-coated membrane were counted after wiping the cells off the membrane in the upper chamber with a cotton swab.
The cells that traversed the membrane were fixed with Diff-Quik stain according to the manufacturer's instruction (Dade Diagnostics Inc., Aguada, PR). The cells were counted under a microscope at 320× in four randomly selected fields. The experiments were done in duplicate and repeated at least three times.

[10] = test system: melanoma (B16); test: Syngeneic tumor growth in C57BL/6 mice, melanoma (B16); type: in vivo; conditions: 2.5 mg/kg from the day following implantation, two weeks
Procedure: as §1, §2

[11] = test system: endothelial cells (HUVEC); test: Growth inhibition of endothelial cells; type: cell-based
Procedure: as §3, §4

[12] = KS tumors grown five days before treatment, 1 and 5 mg/kg daily

B1: Saposin B: polypeptide fragment of Prosaposin, positions 190 to 269 (SEQ ID NO:2); tested as recombinant protein (protein, listed as Homo sapiens)
chain: GDVCQDCIQMVTDIQTAVRTNSTFVQALVEHVKEECDRLGPGMADICKNYISQYSEIAIQMMMHMQPKEICALVGFCDEVK
modifications: Saposin B
notes: tested as recombinant protein
For B1, the “inhibition of angiogenesis (number of blood vessel branches) in CAMs” value [1] was “effectively blocked angiogenesis; also recorded: inhibited by Saposin B in a dose-dependent fashion”, the “effect on colonies generated with VEGF” value [2] was “loss of spindle shaped cells” and the tumor growth [3] was “profound inhibition of tumor growth”. For the same molecule, the “difference in viability of treated CD34+ cells compared to control cells” value [4] was “around 20%”, the tumor growth [5] was “profound inhibition of tumor growth” and the “CD34+/Flk-1+ progenitor growth” value [6] was “inhibited”. For the same molecule, the “growth inhibition / activity against KS cell lines” value [7] was “dose dependent growth inhibition”, the tumor growth ([8]; KS Y-1 in nude mice, 2.5 mg/kg from the day following implantation, two weeks) was “profound inhibition of tumor growth” and the “apoptosis in excised tumors” value [8, 12] was “increase in apoptosis”. For the same molecule, the “blood vessel density in excised tumors” value [8, 12] was “decrease in blood vessel density”, the “weights of excised tumors relative to controls” value [8, 12] was “approximately 23%” and the tumor growth ([8]; nude mice, KS-SLK or KS Y-1, subcutaneously daily after one week, 1, 10 and 20 mg/kg) was “markedly retarded”. The “inhibition of KS cell migration” value [9] was “compete inhibition of cell migration”, the tumor growth [10] was “profound inhibition of tumor growth” and the “growth inhibition / activity against endothelial cells” value [11] was “dose dependent growth inhibition”.
